This assay addresses clotting factor VIII (human) (UniProt P00451). Briefly: cell-based or functional assay.
Sequence of UniProt P00451 (P00451 20-2351): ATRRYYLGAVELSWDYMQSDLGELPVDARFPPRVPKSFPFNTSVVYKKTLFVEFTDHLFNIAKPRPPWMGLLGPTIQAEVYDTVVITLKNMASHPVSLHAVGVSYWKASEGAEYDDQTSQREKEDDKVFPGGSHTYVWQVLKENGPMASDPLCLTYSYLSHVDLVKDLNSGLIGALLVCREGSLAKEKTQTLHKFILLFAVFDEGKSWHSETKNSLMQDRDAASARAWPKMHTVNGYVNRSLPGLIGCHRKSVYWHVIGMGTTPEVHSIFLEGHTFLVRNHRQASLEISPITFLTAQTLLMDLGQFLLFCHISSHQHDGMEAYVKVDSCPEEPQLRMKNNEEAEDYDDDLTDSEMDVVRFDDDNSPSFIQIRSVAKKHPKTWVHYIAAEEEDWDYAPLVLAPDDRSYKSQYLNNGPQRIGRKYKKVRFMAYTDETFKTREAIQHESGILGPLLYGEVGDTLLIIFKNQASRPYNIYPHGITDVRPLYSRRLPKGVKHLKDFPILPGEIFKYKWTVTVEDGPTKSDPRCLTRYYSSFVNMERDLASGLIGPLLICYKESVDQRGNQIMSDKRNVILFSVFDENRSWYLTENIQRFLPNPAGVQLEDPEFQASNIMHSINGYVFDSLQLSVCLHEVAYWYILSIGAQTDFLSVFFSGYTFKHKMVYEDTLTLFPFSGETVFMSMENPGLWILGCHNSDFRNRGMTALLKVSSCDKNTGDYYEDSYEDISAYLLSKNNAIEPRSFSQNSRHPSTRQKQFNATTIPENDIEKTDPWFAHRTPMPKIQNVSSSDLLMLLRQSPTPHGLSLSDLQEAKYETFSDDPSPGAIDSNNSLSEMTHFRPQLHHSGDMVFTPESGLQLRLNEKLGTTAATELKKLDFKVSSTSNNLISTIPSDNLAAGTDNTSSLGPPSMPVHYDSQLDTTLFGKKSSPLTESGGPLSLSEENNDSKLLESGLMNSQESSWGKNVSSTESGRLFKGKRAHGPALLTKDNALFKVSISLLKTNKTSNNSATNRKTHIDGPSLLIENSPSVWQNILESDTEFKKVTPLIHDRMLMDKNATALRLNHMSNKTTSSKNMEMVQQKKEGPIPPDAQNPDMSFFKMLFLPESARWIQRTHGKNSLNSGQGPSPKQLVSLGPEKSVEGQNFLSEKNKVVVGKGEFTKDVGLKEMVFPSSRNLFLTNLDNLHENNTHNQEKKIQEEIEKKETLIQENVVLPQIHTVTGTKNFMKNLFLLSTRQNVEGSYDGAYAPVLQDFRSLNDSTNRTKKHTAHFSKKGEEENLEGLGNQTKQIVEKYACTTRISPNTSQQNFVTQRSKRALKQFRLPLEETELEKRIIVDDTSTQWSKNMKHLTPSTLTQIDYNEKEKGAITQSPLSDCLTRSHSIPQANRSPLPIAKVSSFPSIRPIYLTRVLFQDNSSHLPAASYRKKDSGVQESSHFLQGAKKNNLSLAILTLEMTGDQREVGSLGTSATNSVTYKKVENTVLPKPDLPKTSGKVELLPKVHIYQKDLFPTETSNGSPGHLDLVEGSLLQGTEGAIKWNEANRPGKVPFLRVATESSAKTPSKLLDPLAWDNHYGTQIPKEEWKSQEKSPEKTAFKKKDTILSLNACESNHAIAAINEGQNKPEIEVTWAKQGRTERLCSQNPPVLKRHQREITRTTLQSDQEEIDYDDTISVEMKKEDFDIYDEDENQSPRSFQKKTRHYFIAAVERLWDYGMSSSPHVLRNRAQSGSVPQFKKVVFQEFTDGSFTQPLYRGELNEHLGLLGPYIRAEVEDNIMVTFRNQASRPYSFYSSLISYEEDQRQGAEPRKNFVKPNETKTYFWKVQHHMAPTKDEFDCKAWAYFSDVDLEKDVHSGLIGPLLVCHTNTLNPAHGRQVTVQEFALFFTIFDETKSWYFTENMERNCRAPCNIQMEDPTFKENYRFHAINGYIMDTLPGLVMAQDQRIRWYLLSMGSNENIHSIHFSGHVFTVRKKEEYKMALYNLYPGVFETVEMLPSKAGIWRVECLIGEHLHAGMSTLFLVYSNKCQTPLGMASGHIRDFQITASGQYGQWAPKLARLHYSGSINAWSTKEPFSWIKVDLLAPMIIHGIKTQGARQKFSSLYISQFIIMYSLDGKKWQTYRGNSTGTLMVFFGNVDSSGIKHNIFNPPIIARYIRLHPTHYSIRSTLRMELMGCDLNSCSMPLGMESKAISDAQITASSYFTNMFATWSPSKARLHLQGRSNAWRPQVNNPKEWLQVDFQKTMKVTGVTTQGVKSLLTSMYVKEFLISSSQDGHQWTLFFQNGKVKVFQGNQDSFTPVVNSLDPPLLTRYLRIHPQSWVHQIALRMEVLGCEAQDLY

“murine monoclonal anti-FVIII antibody ESH8 (American Diagnostica)” displayed an FVIII activity of normal plasma after adding ESH8 (% of its initial activity) of 32.6 and an FVIII activity of normal plasma after adding ESH8 (% of the initial activity) of 23.5.

These data come from patent publication US20100055125A1.
